Results published in the nanobody polyreactivity screen of Harvey et al. (2022).

Assay: yeast display, Sf9 membrane polyspecificity reagent, FACS + sequencing; frameworks hold sequencing errors
How it was run: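 Sorting gates, low and high (top ~1%), were placed on anti-HA fluorescence to track expression and on streptavidin fluorescence to track reagent binding. A clone's polyreactivity label is taken from the gate it came out of. The reagent was 10% biotinylated, detergent-solubilized Sf9 membrane, applied for 1 hour at 4 °C to galactose-induced yeast display cells.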

Row | Sequence | polyreactivity (PSR sort gate)
1 | QVQLVESGGGLVQAGGSLRLICAASGRTFRYYTMGWYRQAPGKEREFVAAISSTGGTYYADSVKGRFTNSRDNAKNTVYFQMNSLKPEDTAVYYWAAYRWGILSAYYYAWYGYWGQGTQVTVSS | low polyreactivity
2 | QVQLVESGGGLVQAGGSLRLICAASGRTFSSNAMGWYRPAPGNERELVAAISTSGGRTYYADSVKGRCTISRDNAKNTVYLQMNSLKPEDTAVYYGAAEYVGTGTPDDYAYWGQGTQVTVSS | high polyreactivity
3 | QVQLVESGGGLVQAGGSLRLICAASGRTFVANTMGWYRQAPGKERELVATITWNGGSTYYADSVKGRFTISRDNAKNTVYLQMNSLKPEDTAVYYCAKEAYFRRYYVYRYGYWGQGTQVTVSS | high polyreactivity
4 | QVQLVESGGGLVQAGGSLRLICAASGRTFYPNAMGWYRPAPGKERELVAAINSGDSTSYADSVKGRFTIARDNAKNTVYLQMNRLKPEDTAVYYCAAAEWYQFFIYRYTYEYWGQGTQVTVSS | low polyreactivity
5 | QVQLVESGGGLVQAGGSLRLICAASGRTFYVNAMGWYRQAPGKERELVATITDRGGRTYYADSVKGRFTISRDNAKNTVYLQMNSLKPEDTAVYYCAATRWYEVDYWGQGTQVTVSS | low polyreactivity
6 | QVQLVESGGGLVQAGGSLRLICAASGRTVYRYAMGWYRQAPGKERELVAAITTSGGSTYYADSVKGRFTISRDNAKKTVNIQMNSLKPEDTAVYYCARRVYGYYIPYNYWGKGTQVTVSS | high polyreactivity
7 | QVQLVESGGGLVQAGGSLRLICAASGRTYRLYAMGWYRQAPGKERELVAAISYSDGRTYYADSVKGRFTISRDNAKNTVYLQMNSLKPEDTALYYCAAETLYVSPYFYVVQYDYWGQGTQVTVSS | high polyreactivity
8 | QVQLVESGGGLVQAGGSLRLICAASGSIFDQNDMGWYRQAPGKERELVAAISSGSSTNYADSVKGRFTISRDNAKNTVYLQMNSLKAEDTAGYYCAVTSPYSQGYSFWGADSREYWGQGTQVTVSS | low polyreactivity
9 | QVQLVESGGGLVQAGGSLRLICAASGSIFFGNAMGWYRQAPGKERELDAAITLRGGSTYYADSVKGRFTISRDNAKNTVYLQMNSLKPEDTAVYYCNAVSKRYGYGYWGQGTQVTVSS | high polyreactivity
10 | QVQLVESGGGLVQAGGSLRLICAASGSIFGDNAMGWYRQAPGKERELVARISSGGNTYYADSVKGRFTISRDNAKNTVYLQMNSLKPEDTAVYYCNVYRYDGDYWGQGTQVTVSS | high polyreactivity
11 | QVQLVESGGGLVQAGGSLRLICAASGSIFGDTAMAWYSQAPGKERELVATISSSDASTYYADSVKGRFTSSRDNAKNTVYLQMNSVKREDSAVYYCAKEVNAGYHVWYDYWGEGTQVTVSS | low polyreactivity
12 | QVQLVESGGGLVQAGGSLRLICAASGSIFGRYAMGWYRQAPGKETELVAAINDDSGRTYYADSVKGRFTISRDNAKNTVYLQMNSLKPEDTAVYYCAADGYVLWYSFDYWGQGTLVTVSS | high polyreactivity
13 | QVQLVESGGGLVQAGGSLRLICAASGSIFGYNAMGWYRQAPGKERELVAAIRISTDNTYYADSVKGRFTISRDNAKNTVYLQMNSLKPEDTAVYYCAASSQTQYGDNYWGQGTQVTVSS | high polyreactivity
14 | QVQLVESGGGLVQAGGSLRLICAASGSIFGYYAMGWYRQAPGKERELVAAISYSGSRTYYADSVKGRFTISRDNAKNTVYLQMNSLKPEDTAVYYCAARGSRLYSSWRGDYWGQGTQVTVSS | high polyreactivity
15 | QVQLVESGGGLVQAGGSLRLICAASGSIFIRNAMGWYRQAPGKERELVAAITSRGGSTYYADSVKGRFTISRDNAKNTVFLQMNSLKPEDTAVYYCARRYYGLYDYWGQGTQVTVSS | low polyreactivity
16 | QVQLVESGGGLVQAGGSLRLICAASGSIFISYAMGWYRQAPGKERELVAAISSGGSTNYADSVKGRFTISRDNAKNTVYLQMNSLKPEDTAVYYCAADGWLWSFTGDGWWFDYWGQGTQVTVSS | low polyreactivity
17 | QVQLVESGGGLVQAGGSLRLICAASGSIFNGYVMGWYRQAPGKERELVAAISSGGRTYYADSVKGRFTISRDNAKNTVYLQMNSLKPEDTAVYYCAADIWYFDYDYWGQGTQVTVSS | high polyreactivity
18 | QVQLVESGGGLVQAGGSLRLICAASGSIFPPYAMGWYRQAPGKDREFVAAITISGDSTYYADSVKGRFTISRDNAKNTVYLQMNSLKPEDTAVYYCNADSYAFQYTWGEAYYGLYGYWGQGTQVTVSS | low polyreactivity
19 | QVQLVESGGGLVQAGGSLRLICAASGSIFRFYAMGWYRQAPGTERELVAAISKTGGRTYYADSVKGRFTISRDNAKNTFYLQMNSLKPEDTAVYYCAASIREGFYWGQGTQVTVSS | high polyreactivity
20 | QVQLVESGGGLVQAGGSLRLICAASGSIFRIYAMGWYRQAPGKEREFVAAISRRGGSTYYADSVKGRFTISRDNAKNTVYLQMNSLKPEDTAVYYCAASGGGSDAYWGQGTQVTVSS | high polyreactivity
21 | QVQLVESGGGLVQAGGSLRLICAASGSIFSVNTMGWYREAPGKERELVATIRTGDSTNYADSVKGRFTISRDNAKNTVYLQMNSLKPEDTAVYYCAAEWSSLNFDYWGQGTQVTVSS | low polyreactivity
22 | QVQLVESGGGLVQAGGSLRLICAASGSIFTVYAMGWYRQAPGKERELVADIDYGGTYYADSVKGRFTISRDNAKNTVYLQMNSLKPEDTAVYYCAALAALDYGQLYLDDDDYWGQGTQVTVSS | low polyreactivity

Row | Sequence | polyreactivity (PSR sort gate)
23 | QVQLVESGGGLVQAGGSLRLICAASGSIFVYNAMGWYRQAPGKERELVAAISYSGGRTYYADSVKGRFTISRDNAKNTVYLQMNSLKPEDTAVYYCAARSQRHKLSREYNYWGQGTQVTVSS | high polyreactivity
24 | QVQLVESGGGLVQAGGSLRLICAASGSIFYYYAMGWYRQAPGKERELVATITWNGAGTFYADSVKGRFTISRDNAKNTVYLQMNSLKPEDTSVYYCAASWYGESGYEYWGQGTQVTVSS | low polyreactivity
25 | QVQLVESGGGLVQAGGSLRLICAASGSIIAINVMGWYRQAPGKEREFVAAISVRSGSTYYADSVKGRFTISRDNAKNTVYLQMNSLKPEDTAVYYCAARTSRFWRGGGLDYWGQGTQVTVSS | high polyreactivity
26 | QVQLVESGGGLVQAGGSLRLICAASGSISYEYAMGWYRQAPGKERELVASIDSDGAGTYYADSVKGRFTISLDNAKNTVYLQMNSLKPEDTAVYYCNSEWYYPYYYSRMDYWGQGTQVTVSS | low polyreactivity
27 | QVQLVESGGGLVQAGGSLRLICAASGSIYYSYGMGWYRQAPGKERELVAAITSSGGGTYYADSVKGRFTISRDNAKNTFYLQMNSLKPEDTAVYYCAADDRNYNYYPTFYYWGQGTQVTVSS | low polyreactivity
28 | QVQLVESGGGLVQAGGSLRLICAASGSNFWGNTMGWYRQAPGKERELVATISRRGGSTNYADSVKGRFTISRDNAKNTVYLQMNSLKPEDTAVYYCAAVTIYRSYRGNPYYYWGQGTQVTVSS | high polyreactivity
29 | QVQLVESGGGLVQAGGSLRLICAASGSTFAYYVMGWYRPAPGTEREFVATITGSGGRTYYADSVKGRFTISRDNAKNTVYLQMISLKPEDTAVYYCAAGVYTGQHEYDYWGQGTQVTVSS | low polyreactivity
30 | QVQLVESGGGLVQAGGSLRLICAASGSTFERYAMGWYRQAPGKERELVAAIDSRSGSTSYADSVKGRFTISRDNAKNTVYLQMNSLKPEDTAVYYCAKDYYRPWYDRPLGYDYWGQGTQVTVSS | low polyreactivity
31 | QVQLVESGGGLVQAGGSLRLICAASGSTFGRYAMGWYRQAPGKERELVARISWGGGSTYYADSVKGRFTISRDNAKNTVYLQMYSLKPEDTAVYYCATRVYRSAVSYDYWGQGTQVTVSS | high polyreactivity
32 | QVQLVESGGGLVQAGGSLRLICAASGSTFGTYAMGWYRQAPGKERELVAAISWSGGSTYYADSVKGRFTISRDNAKNTVYLQMNSLQPEDTAVYWGQGTQVTVSS | low polyreactivity
33 | QVQLVESGGGLVQAGGSLRLICAASGSTFGVNAMGWYRQAPGKERELVAAITQSGGSTFYADSVKGRFTISRDKAKNTVYLQMNSLKPEDTAVYYWGQGTQVTVSS | low polyreactivity
34 | QVQLVESGGGLVQAGGSLRLICAASGSTFIWNSMGWYRQAPGKERELGATITGSGDRTTYADSVKGRFTISRDNAKNTVYLQMNSLKPEDTAVYYCAGDAYRWWVRYDYWGQGTQVTVSS | low polyreactivity
35 | QVQLVESGGGLVQAGGSLRLICAASGSTFKTYAMGWYRQAPGQEREFVASISGSGGSTSYADSVKGRFTISRDNAKNTVYLQMNSLKPEDTAVYYCAARLQKPTIGKGVYYWGQGTLVTVSS | high polyreactivity
36 | QVQLVESGGGLVQAGGSLRLICAASGSTFLTNVMGWYRQAPGKERELVAAISRGGGRTYYADSVKGRFTISRDNAKNTVYLQMNSLKPEDTAVYYCNAVDASHAGPVGGAFRYDYWGQGTQVTVSS | high polyreactivity
37 | QVQLVESGGGLVQAGGSLRLICAASGSTFPPNAMGWYRQAPGKERELVAAISKRGGSTTYSDSVKGRFTISRDYAKNTVYLQMNSLIPEDTAVYYCAARRSGRSHYEKMDYWGQGTQVSVSS | low polyreactivity
38 | QVQLVESGGGLVQAGGSLRLICAASGSTFPRNAMGWYRQAPGKERELVATITSSGGGTYYADSVKGRFTISRDNAMNTVYLQMNSLKPEDTAVYYCNADGPAGDAFDYWGQGTQVTVSS | low polyreactivity
39 | QVQLVESGGGLVQAGGSLRLICAASGSTFSSNAMAWFRQAPGKERELVAAIDRGGSTNYADSVKGRFTISRDNAKNTVYFQMNCLKAEDTAVYYCKAERVTYDTGRAVLPGGYWGQGTQVTVSS | low polyreactivity
40 | QVQLVESGGGLVQAGGSLRLICAASGSTFVVNAMGWYRQAPGKERELVAAIRNSGSTTYADSVKGRFTISRDNAKNTVYLQMNSLKPEDTAVYYCATDFSATVTAVQINPYDYWGQGTQVTVSS | low polyreactivity
41 | QVQLVESGGGLVQAGGSLRLICAASGSTFYDNTMGWYRQAPGKERELVAAISSGGGTYYADSVKGRFTISRDNAKNTVYLQMNSLKPEDTSVYYCNADQTAYGKPGRAYGFDYWGQGTQVTVSS | low polyreactivity
42 | QVQLVESGGGLVQAGGSLRLICAASGSTLPGYVKGWYRQAPGKERELVAAITKSGGSTYYADSVKGRFTISRDNAKNTVYLQMNSLKPEDTAVYYCAVGVKAQIAGDYWGQGTQVTVSS | low polyreactivity
43 | QVQLVESGGGLVQAGGSLRLICAASGSTQSPYAMGWYRQAPGKERDFVAAISTSGVSTYYADSVKGRFTISRDNAKNTVDLQMNSLKPVDTAVYYCATRYYIYGSTLKLYDYWGQGTQVTVSS | high polyreactivity
